B1: Purine nucleoside phosphorylase LACC1 (Homo sapiens), Q8IV20 (parent)
chain: MAEAVLIDLFGLKLNSQKNCHQTLLKTLNAVQYHHAAKAKFLCIMCCSNISYERDGEQDNCEIETSNGLSALLEEFEIVSCPSMAATLYTIKQKIDEKNLSSIKVIVPRHRKTLMKAFIDQLFTDVYNFEFEDLQVTFRGGLFKQSIEINVITAQELRGIQNEIETFLRSLPALRGKLTIITSSLIPDIFIHGFTTRTGGISYIPTLSSFNLFSSSKRRDPKVVVQENLRRLANAAGFNVEKFYRIKTHHSNDIWIMGRKEPDSYDGITTNQRGVTIAALGADCIPIVFADPVKKACGVAHAGWKGTLLGVAMATVNAMIAEYGCSLEDIVVVLGPSVGPCCFTLPRESAEAFHNLHPACVQLFDSPNPCIDIRKATRILLEQGGILPQNIQDQNQDLNLCTSCHPDKFFSHVRDGLNFGTQIGFISIKE

The variants in the test derive from B1. The settings on record: with fas_human FASN.
As to MAEAVLIDLFGLKLNSQKNCHQTLLKTLNAVQYHHAAKAKFLCIMCCSNISYERDGEQDNCEIETSNGLSALLEEFEIVSCPSMAATLYTIKQKIDEKNLSSIKVIVPRHRKTLMKAFIDQLFTDVYNFEFEDLQVTFRGGLFKQSIEINVITAQELRGIQNEIETFLRSLPALRGKLTIITSSLIPDIFIHGFTTRTGGISYIPTLSSFNLFSSSKRRDPKVVVQENLRRLANAAGFNVEKFYRIKTHHSNDVWIMGRKEPDSYDGITTNQRGVTIAALGADCIPIVFADPVKKACGVAHAGWKGTLLGVAMATVNAMIAEYGCSLEDIVVVLGPSVGPCCFTLPRESAEAFHNLHPACVQLFDSPNPCIDIRKATRILLEQGGILPQNIQDQNQDLNLCTSCHPDKFFSHVRDGLNFGTQIGFISIKE [I254V], the “effect of a mutation on the interaction” value is given as “with no effect”.

These data come from IntAct's records for PubMed 27478939.
